Tested on: Escherichia coli TOP10
Experiment: shrunken log2 fold change of peptide-encoding DNA abundance (4.5 h post-induction vs induction); higher = less antimicrobial activity (less host growth inhibition)
Details: time post-induction: 4.5 h; library: site-saturation at positions 5, 18, 19, 20
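Also: peptides expressed intracellularly from a pBAD plasmid library in pooled LB shake-flask culture, induced with 0.3% L-arabinose, DNA abundance read by NGS, three biological replicates, DESeq2 with apeglm shrinkage.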

Row | Sequence | shrunken log2 fold change
1 | RRIRIRPPRLPRPRPRPTLCPRP | 0.0503
2 | RRIRIRPPRLPRPRPRPTLNPRP | -0.181
3 | RRIRIRPPRLPRPRPRPTLSPRP | -0.0751
4 | RRIRIRPPRLPRPRPRPTLVPRP | 0.0386
5 | RRIRIRPPRLPRPRPRPTNQPRP | -0.28
6 | RRIRIRPPRLPRPRPRPTNSPRP | -0.827
7 | RRIRIRPPRLPRPRPRPTPGPRP | 0.131
8 | RRIRIRPPRLPRPRPRPTPQPRP | -0.117
9 | RRIRIRPPRLPRPRPRPTQQPRP | 0.0936
10 | RRIRIRPPRLPRPRPRPTRSPRP | -0.00877
11 | RRIRIRPPRLPRPRPRPTRVPRP | 0.167
12 | RRIRIRPPRLPRPRPRPTSCPRP | -0.0992
13 | RRIRIRPPRLPRPRPRPTSMPRP | -0.0835
14 | RRIRIRPPRLPRPRPRPTWWPRP | 0.0347
15 | RRIRIRPPRLPRPRPRPTWYPRP | -0.668
16 | RRIRIRPPRLPRPRPRPTYFPRP | -0.522
17 | RRIRIRPPRLPRPRPRPTYMPRP | -0.707
18 | RRIRIRPPRLPRPRPRPVAEPRP | 0.243
19 | RRIRIRPPRLPRPRPRPVATPRP | -0.374
20 | RRIRIRPPRLPRPRPRPVDNPRP | -0.0726
21 | RRIRIRPPRLPRPRPRPVDVPRP | -0.675
22 | RRIRIRPPRLPRPRPRPVEEPRP | -0.0729
23 | RRIRIRPPRLPRPRPRPVEHPRP | 0.0873
24 | RRIRIRPPRLPRPRPRPVFQPRP | -0.19
25 | RRIRIRPPRLPRPRPRPVGYPRP | 0.0961

Row | Sequence | shrunken log2 fold change
26 | RRIRIRPPRLPRPRPRPVIRPRP | 0.00816
27 | RRIRIRPPRLPRPRPRPVKAPRP | -0.0571
28 | RRIRIRPPRLPRPRPRPVKVPRP | -0.00567
29 | RRIRIRPPRLPRPRPRPVLDPRP | 0.0135
30 | RRIRIRPPRLPRPRPRPVLEPRP | 0.0298
31 | RRIRIRPPRLPRPRPRPVNWPRP | -0.229
32 | RRIRIRPPRLPRPRPRPVPNPRP | -0.00284
33 | RRIRIRPPRLPRPRPRPVQFPRP | -0.303
34 | RRIRIRPPRLPRPRPRPVQHPRP | -0.38
35 | RRIRIRPPRLPRPRPRPVRMPRP | 0.109
36 | RRIRIRPPRLPRPRPRPVRVPRP | 0.458
37 | RRIRIRPPRLPRPRPRPVSKPRP | -0.0544
38 | RRIRIRPPRLPRPRPRPVTQPRP | -0.0794
39 | RRIRIRPPRLPRPRPRPVVRPRP | 0.11
40 | RRIRIRPPRLPRPRPRPVWKPRP | 0.154
41 | RRIRIRPPRLPRPRPRPVYAPRP | -0.517
42 | RRIRIRPPRLPRPRPRPWCGPRP | -0.454
43 | RRIRIRPPRLPRPRPRPWCQPRP | -0.339
44 | RRIRIRPPRLPRPRPRPWCVPRP | -0.698
45 | RRIRIRPPRLPRPRPRPWCWPRP | -0.146
46 | RRIRIRPPRLPRPRPRPWEEPRP | -0.04
47 | RRIRIRPPRLPRPRPRPWFIPRP | -0.243
48 | RRIRIRPPRLPRPRPRPWFMPRP | -0.503
49 | RRIRIRPPRLPRPRPRPWFPPRP | -0.349
50 | RRIRIRPPRLPRPRPRPWGCPRP | -0.307

Row | Sequence | shrunken log2 fold change
51 | RRIRIRPPRLPRPRPRPWGPPRP | 0.102
52 | RRIRIRPPRLPRPRPRPWGRPRP | -0.239
53 | RRIRIRPPRLPRPRPRPWHMPRP | -0.0375
54 | RRIRIRPPRLPRPRPRPWIGPRP | -0.0616
55 | RRIRIRPPRLPRPRPRPWIQPRP | -0.318
56 | RRIRIRPPRLPRPRPRPWKIPRP | -0.0311
57 | RRIRIRPPRLPRPRPRPWKQPRP | -0.00674
58 | RRIRIRPPRLPRPRPRPWKYPRP | -0.254
59 | RRIRIRPPRLPRPRPRPWLWPRP | -0.0533
60 | RRIRIRPPRLPRPRPRPWMHPRP | 0.0105
61 | RRIRIRPPRLPRPRPRPWMVPRP | -0.619
62 | RRIRIRPPRLPRPRPRPWNAPRP | 0.0267
63 | RRIRIRPPRLPRPRPRPWNYPRP | 0.0299
64 | RRIRIRPPRLPRPRPRPWRTPRP | -1.03
65 | RRIRIRPPRLPRPRPRPWSFPRP | -0.0245
66 | RRIRIRPPRLPRPRPRPWSHPRP | -0.416
67 | RRIRIRPPRLPRPRPRPWYDPRP | -0.0891
68 | RRIRIRPPRLPRPRPRPWYNPRP | -0.343
69 | RRIRIRPPRLPRPRPRPWYPPRP | -0.238
70 | RRIRIRPPRLPRPRPRPWYQPRP | 0.00187
71 | RRIRIRPPRLPRPRPRPYALPRP | -0.0961
72 | RRIRIRPPRLPRPRPRPYCPPRP | -0.175
73 | RRIRIRPPRLPRPRPRPYCQPRP | -1.1
74 | RRIRIRPPRLPRPRPRPYCVPRP | -0.207
75 | RRIRIRPPRLPRPRPRPYDEPRP | -0.338

Row | Sequence | shrunken log2 fold change
76 | RRIRIRPPRLPRPRPRPYDKPRP | -0.224
77 | RRIRIRPPRLPRPRPRPYEVPRP | -0.248
78 | RRIRIRPPRLPRPRPRPYFCPRP | -1.26
79 | RRIRIRPPRLPRPRPRPYGKPRP | -0.108
80 | RRIRIRPPRLPRPRPRPYGMPRP | -0.354
81 | RRIRIRPPRLPRPRPRPYGPPRP | -1.06
82 | RRIRIRPPRLPRPRPRPYHIPRP | -0.0511
83 | RRIRIRPPRLPRPRPRPYIPPRP | -0.92
84 | RRIRIRPPRLPRPRPRPYKQPRP | -0.101
85 | RRIRIRPPRLPRPRPRPYLYPRP | -0.544
86 | RRIRIRPPRLPRPRPRPYMYPRP | -0.91
87 | RRIRIRPPRLPRPRPRPYNVPRP | -0.291
88 | RRIRIRPPRLPRPRPRPYQTPRP | -0.0792
89 | RRIRIRPPRLPRPRPRPYRLPRP | 0.00643
90 | RRIRIRPPRLPRPRPRPYRVPRP | -0.0849
91 | RRIRIRPPRLPRPRPRPYVPPRP | -0.212
92 | RRIRIRPPRLPRPRPRPYWCPRP | 0.0219
93 | RRIRIRPPRLPRPRPRPYYDPRP | -0.0728
94 | RRIRIRPPRLPRPRPRPYYIPRP | -0.552
95 | RRIRIRPPRLPRPRPRPYYKPRP | -1.01
96 | RRIRKRPPRLPRPRPRPACMPRP | 0.605
97 | RRIRKRPPRLPRPRPRPAGTPRP | 0.992
98 | RRIRKRPPRLPRPRPRPAIEPRP | 0.018
99 | RRIRKRPPRLPRPRPRPAIRPRP | -0.29
100 | RRIRKRPPRLPRPRPRPAKSPRP | 0.254

Row | Sequence | shrunken log2 fold change
101 | RRIRKRPPRLPRPRPRPALIPRP | 0.2
102 | RRIRKRPPRLPRPRPRPALVPRP | 0.623
103 | RRIRKRPPRLPRPRPRPAMFPRP | 0.337
104 | RRIRKRPPRLPRPRPRPAMMPRP | 1.24
105 | RRIRKRPPRLPRPRPRPAMSPRP | -0.146
106 | RRIRKRPPRLPRPRPRPANAPRP | 0.426
107 | RRIRKRPPRLPRPRPRPANCPRP | 0.0966
108 | RRIRKRPPRLPRPRPRPANFPRP | -0.0479
109 | RRIRKRPPRLPRPRPRPANHPRP | -0.235
110 | RRIRKRPPRLPRPRPRPANTPRP | -0.0533
111 | RRIRKRPPRLPRPRPRPAPFPRP | 0.659
112 | RRIRKRPPRLPRPRPRPAPPPRP | 1.04
113 | RRIRKRPPRLPRPRPRPAQHPRP | 0.65
114 | RRIRKRPPRLPRPRPRPARCPRP | 0.782
115 | RRIRKRPPRLPRPRPRPARRPRP | 0.888
116 | RRIRKRPPRLPRPRPRPASSPRP | 0.0469
117 | RRIRKRPPRLPRPRPRPASTPRP | 0.53
118 | RRIRKRPPRLPRPRPRPATGPRP | 0.145
119 | RRIRKRPPRLPRPRPRPATIPRP | 0.00392
120 | RRIRKRPPRLPRPRPRPAVAPRP | 0.0118
121 | RRIRKRPPRLPRPRPRPAWSPRP | 0.202
122 | RRIRKRPPRLPRPRPRPAYRPRP | 0.0954
123 | RRIRKRPPRLPRPRPRPAYVPRP | 0.108
124 | RRIRKRPPRLPRPRPRPCAAPRP | 0.421
125 | RRIRKRPPRLPRPRPRPCCMPRP | 0.103

Row | Sequence | shrunken log2 fold change
126 | RRIRKRPPRLPRPRPRPCCNPRP | 0.0185
127 | RRIRKRPPRLPRPRPRPCDPPRP | 0.121
128 | RRIRKRPPRLPRPRPRPCDVPRP | 0.0144
129 | RRIRKRPPRLPRPRPRPCFIPRP | -0.13
130 | RRIRKRPPRLPRPRPRPCGPPRP | -0.0191
131 | RRIRKRPPRLPRPRPRPCHAPRP | 0.384
132 | RRIRKRPPRLPRPRPRPCHRPRP | 0.00781
133 | RRIRKRPPRLPRPRPRPCHTPRP | 0.0319
134 | RRIRKRPPRLPRPRPRPCHVPRP | -0.203
135 | RRIRKRPPRLPRPRPRPCIMPRP | 1.3
136 | RRIRKRPPRLPRPRPRPCIVPRP | -0.286
137 | RRIRKRPPRLPRPRPRPCKWPRP | 0.0523
138 | RRIRKRPPRLPRPRPRPCMLPRP | -0.245
139 | RRIRKRPPRLPRPRPRPCNSPRP | -0.0179
140 | RRIRKRPPRLPRPRPRPCPIPRP | -0.212
141 | RRIRKRPPRLPRPRPRPCQDPRP | 0.0115
142 | RRIRKRPPRLPRPRPRPCSAPRP | -0.0728
143 | RRIRKRPPRLPRPRPRPCSIPRP | 0.11
144 | RRIRKRPPRLPRPRPRPCSKPRP | -0.01
145 | RRIRKRPPRLPRPRPRPCSLPRP | -0.529
146 | RRIRKRPPRLPRPRPRPCSVPRP | 0.0108
147 | RRIRKRPPRLPRPRPRPCSYPRP | -0.0348
148 | RRIRKRPPRLPRPRPRPCTAPRP | 0.383
149 | RRIRKRPPRLPRPRPRPCTQPRP | -0.0701
150 | RRIRKRPPRLPRPRPRPCVYPRP | 0.109
